Laboratory results: US20050014931A1 (ABGENIX, published 2005)

Molecular target: BSA (UniProt P02769 25-607)
Test: ELISA screen of hybridoma supernatants

BSA, sequence (P02769 25-607 limits assumed): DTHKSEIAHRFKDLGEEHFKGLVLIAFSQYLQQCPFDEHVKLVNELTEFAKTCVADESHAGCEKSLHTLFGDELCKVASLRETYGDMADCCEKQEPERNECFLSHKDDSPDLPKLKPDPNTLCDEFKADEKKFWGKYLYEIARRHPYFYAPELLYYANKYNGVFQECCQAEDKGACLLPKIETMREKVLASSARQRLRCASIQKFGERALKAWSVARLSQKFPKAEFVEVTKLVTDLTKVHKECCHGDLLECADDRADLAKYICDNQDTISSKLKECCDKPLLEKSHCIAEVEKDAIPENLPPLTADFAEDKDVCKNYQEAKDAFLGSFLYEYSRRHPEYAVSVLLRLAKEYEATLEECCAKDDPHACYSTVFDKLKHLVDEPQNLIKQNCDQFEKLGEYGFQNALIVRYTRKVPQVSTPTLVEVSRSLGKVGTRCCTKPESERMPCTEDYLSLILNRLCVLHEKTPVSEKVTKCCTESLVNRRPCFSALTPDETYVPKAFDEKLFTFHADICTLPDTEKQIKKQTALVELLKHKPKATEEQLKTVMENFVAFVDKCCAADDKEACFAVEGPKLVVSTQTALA

B1: Mab 1A2 (antibody, V domains shown)
VH: not shown
VL: DIELTQSPDFQSVTPKEKVTITCRASQSIGSSLHWYQQKPDQSPKLLIKYASQSFSGVPSRFSGSGSGTDFTLTINSLEAEDAATYYCHQSSSLPRTFGQGTKVEIKR
Q: Does B1 bind?
A: no binding

B2: Mab 1F10/7C5 (antibody, V domains shown)
VH: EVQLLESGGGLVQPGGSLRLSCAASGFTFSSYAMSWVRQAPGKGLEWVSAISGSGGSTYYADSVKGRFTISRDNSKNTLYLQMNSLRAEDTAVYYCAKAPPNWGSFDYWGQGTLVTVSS
VL: DIELTQSPLSLPVTLGQPASISCRSSQSLVYSDGNTYLNWFQQRPGQSPRRLIYKVSNWDSGVPDRFSGSGSGTDFTLKISRVEAEDVGVYYCMQGTHWPRTFGQGTKVEIKR
notes: also called Mab 7C5
Q: Does B2 bind?
A: no binding
